From patent publication US20050232920A1

Tests used:
[1] = target: dog factor D (in dog serum) (dog); test: cell-based or functional assay; details: scale: times less effective than on human factor D
[2] = target: factor D purified from human serum (human) (UniProt P00746); test: cell-based or functional assay
[3] = target: factor D purified from human serum (human) (UniProt P00746); test: SPR (BIAcore), factor D amine-coupled to the chip, MAb 166-32 as analyte
[4] = target: factor D purified from human serum (human) (UniProt P00746); test: SPR (BIAcore), MAb captured by rabbit anti-mouse IgG, factor D as analyte

Chain of UniProt P00746 (P00746 26-253 N180D): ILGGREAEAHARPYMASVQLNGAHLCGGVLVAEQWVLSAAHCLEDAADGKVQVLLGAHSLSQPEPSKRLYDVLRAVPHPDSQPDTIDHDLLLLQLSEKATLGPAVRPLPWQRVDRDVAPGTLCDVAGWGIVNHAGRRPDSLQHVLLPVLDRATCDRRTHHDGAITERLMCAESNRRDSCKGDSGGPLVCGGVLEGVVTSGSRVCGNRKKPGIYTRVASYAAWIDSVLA

Kd [3]: 0.16 nM | koff [3]: 7.6e-05 s⁻¹ | kon [3]: 460000 M⁻¹ s⁻¹ | Kd [4]: < 0.1 nM | koff [4]: 0.00011 s⁻¹ | kon [4]: > 1e+06 M⁻¹ s⁻¹
Substance: MAb 166-32 (antibody)
neutralization of factor D in hemolytic assays [1]: > 10 | alternative complement activity of plasma from extracorporeal circuits (hemolysis of rabbit red blood cells) (molar ratio (MAb: factor D)) [2]: 1.5 | factor D dependent hemolysis of unsensitized rabbit RBCs (factor D depleted human serum with purified factor D added) [2]: 0.3 µg/mL | factor D dependent hemolysis of unsensitized rabbit RBCs: molar ratio for inhibition (molar ratio (MAb 166-32 to factor D)) [2]: 0.5
